Measured values reported in US20220259593A1, “CONTROL OF MAMMALIAN GENE DOSAGE USING CRISPR” (The Regents of the University of California, priority 2019, published 2022).

B1: cr943 (nucleic acid)
guide: GTTTAAGAGCTAAGCTGGAAACAGCATAGCAAGTTTAAATAAGGCTAGTCCGTTATCAACTTGAAAAAGTGACAACGAGTCGTTGTT
modifications: listed as DNA, chemistry not fully specified
B2: cr370 (nucleic acid)
guide: GTTTAAGAGCTAAGCTGGAAACAGCATAGCAAGTTTAAATAAGGCTAGTCCGTTATCAACTTGAGAAAGTGGCACGGAGTCCGTGCT
modifications: listed as DNA, chemistry not fully specified
B3: cr601 (nucleic acid)
guide: GTTTAAGAGCTAAGCTGGAAACAGCATAGAAAGTTTAAATAAGGCTAGTCCGTTATCAACTTGAAAAAGTGGCACCGAGTCGGTGCT
modifications: listed as DNA, chemistry not fully specified
B4: cr495 (nucleic acid)
guide: GTTTAAGAGCTAAGCTGGAAACAGCATAGCAAGTTTAAATAAGGCTAGTCCGTTATCAACTTGAAAAAGTGGCACCGAGACGGTGCT
modifications: listed as DNA, chemistry not fully specified
B5: cr319 (nucleic acid)
guide: GTTTAAGAGCTAAGCTGGAAACAGCATAGCAAGTTTAAATAGGGCTAGTCCGTTATCAACTTGAGAAAGTGGCACCGAGTCGGTGCT
modifications: listed as DNA, chemistry not fully specified
B6: cr470 (nucleic acid)
guide: GTTTAAGAGCTAAGCTGGAAACATCATAGCAAGTTTAAATAAGGCTAGTCCGTTATCAACTTGAAAAAGTGGCACCGAGTCGGTGCT
modifications: listed as DNA, chemistry not fully specified
B7: cr543 (nucleic acid)
guide: GTTTAAGAGCTAAGCTGGAAACAGCATAGCAAGTCTAAATAAGGCTAGTCCGTTATCAACTTGAAAAAGTGGCACCGAGTCGGTGCT
modifications: listed as DNA, chemistry not fully specified
B8: cr960 (nucleic acid)
guide: GTTTAAGAGCTAAGCTGGAAACAGCATAGCAAGTTTAAATAAGGCTAGTCCGTTATCATATTGAAAAATAGGCACCGAGTCGGTGCT
modifications: listed as DNA, chemistry not fully specified
B9: cr919 (nucleic acid)
guide: GTTTAAGAGCTAAGCTGGAAACAGCATAGCAAGTTTAAATAAGGCTAGTCCGTTATCACCTGGAAACAGGGGCACCGAGTCGGTGCT
modifications: listed as DNA, chemistry not fully specified
B10: cr911 (nucleic acid)
guide: GTTTAAGAGCTAAGCTGGAAACAGCATAGCAAGTTTAAATAAGGCACGTCCGTTATCAACTTGAAAAAGTGGCACCGAATCGGTGCT
modifications: listed as DNA, chemistry not fully specified
B11: cr816 (nucleic acid)
guide: GTTTAAGAGCTAAGCTGGAAACAGCATAGCAAGTTTAAATAAGGCTAGTCCGTTATCAACTTGAAAAAGTTGCACCGAGTCGGTGCT
modifications: listed as DNA, chemistry not fully specified
B12: cr517 (nucleic acid)
guide: GTTTAAGAGCTAAGCTGGAAACAGCATAGCAAGTTTAAATAAGGCTAGTCCGTTATCAACTTGAAAAAGTGGCACCGAGTCTGTGCT
modifications: listed as DNA, chemistry not fully specified
B13: cr697 (nucleic acid)
guide: GTTTAAGAGCTAAGCTGGAAACAGCATTGCAAGTTTAAATAAGGCGAGTCCGTTATCAACTTGCAAAAGTGGCACCGAGTCGGTGCT
modifications: listed as DNA, chemistry not fully specified
B14: cr647 (nucleic acid)
guide: GTTTAAGAGCTAAGCTGGAAACAGGATAGCAAGTTTAAATAAGGCTAGTCCGTTATCAACTTGAAAAAGTGGCACCGAGTCGGTGCT
modifications: listed as DNA, chemistry not fully specified
B15: cr289 (nucleic acid)
guide: GTTTAAGAGCTAAGCTGGAAACAGCATAGCAAGTTTAAATAAGGCTAGTCCGTTATCAACTGGAAACAGTGGCACCGAGTCGGTGCT
modifications: listed as DNA, chemistry not fully specified
B16: cr717 (nucleic acid)
guide: GTTTAAGAGCTAAGCTGGAAACAGCATAGCAAGTTTAAATAAGGTTAATCCGTTATCAGCTTGAAAAAGCGGCACCGAGTCGGTGCT
modifications: listed as DNA, chemistry not fully specified
B17: cr391 (nucleic acid)
guide: GTTTAAGAGCTAAGCTGGAAACAGCATAGCAAGTTTAAATAAGCCTAGTGCGTTATCAACTTGAAAAAGTGGCAACGAGTCGTTGCT
modifications: listed as DNA, chemistry not fully specified
B18: cr162 (nucleic acid)
guide: GTTTAAGAGCTAAGCTGGAAACAGCATAGCAAGTTTAAATAAGGCTAGTCCGTTATCAACTTGAAAAAGTGGCACCGAGTCGGAGCT
modifications: listed as DNA, chemistry not fully specified
B19: cr740 (nucleic acid)
guide: GTTTAAGAGCTAAGCTGGAAACAGCATAGCAAGTTTAAATAAGGCTAGTCCGTTATCAACTTGAAAAAGTGCCAGCGAGTCGCTGGT
modifications: listed as DNA, chemistry not fully specified
B20: cr678 (nucleic acid)
guide: GTTTAAGAGCTAAGCTGGAAACAGCATAGCAAGTTTAAATAAGGCTAGTCCGTTATCAACTTGAAAAAGTGGCACCGAGTCGGTACT
modifications: listed as DNA, chemistry not fully specified
B21: cr916 (nucleic acid)
guide: GTTTAAGAGCTAAGCTGGAAACAGCATAGCAAGTTTAAATAAGACTAGTTCGTTATCAACTTGAGAAAGTGGCACCGAGTCGGTGCT
modifications: listed as DNA, chemistry not fully specified
B22: cr435 (nucleic acid)
guide: GTTTAAGAGCTAAGCTGGAAACAGCATAGCCAGTTTAAATAAGGCTAGTCCGGTATCAACTTGAAAAAGTGGCACCGAGTCGGTGCT
modifications: listed as DNA, chemistry not fully specified
B23: cr407 (nucleic acid)
guide: GTTTAAGAGCTAAGCTGGAAACAGCATAGCAAGTTTAAATAAGCCTAGTGCGTTATCAACCTGAAAAGGTGGCATCGAGTCGATGCT
modifications: listed as DNA, chemistry not fully specified
B24: cr554 (nucleic acid)
guide: GTTTAAGAGCTAAGCTGGAAACAGCATAGCAGGTTTAAATAAGGCTAGTCCGTTACCAACTTGAAAAAGTAGCACCGAGTCGGTGCT
modifications: listed as DNA, chemistry not fully specified
B25: cr621 (nucleic acid)
guide: GTTTAAGAGCTAAGCTGGAAACAGCATAGCAAGTTTAAATAAGACTAGTTCGTTATCAACGTGAAAACGTGGCACCAAGTTGGTGCT
modifications: listed as DNA, chemistry not fully specified
B26: cr362 (nucleic acid)
guide: GTTTAAGAGCTAAGCTGGAAACAGCATAGCAAGTTTAAATAAGGCTAGTCCGTTATCAACTTGAAAAAGTGGCACAGAGTCGGTGCT
modifications: listed as DNA, chemistry not fully specified
B27: cr590 (nucleic acid)
guide: GTTTAAGAGCTAAGCTGGAAACAGCATAGCAAGTTTAAATAAGGCTAGTCCGTTATCAACTTGACAAAGTGGCACCGAGCCGGTGCT
modifications: listed as DNA, chemistry not fully specified
B28: cr169 (nucleic acid)
guide: GTTTAAGAGCTAAGCTGGAAACAGCATAGCAAGTTTAAATAAGGCTAGTCCGTTATCAACTTGAGAAAGTGGCACCGAGCCGGTGCT
modifications: listed as DNA, chemistry not fully specified
B29: cr420 (nucleic acid)
guide: GTTTAAGAGCTAAGCTGGAAACAGCATAGCAAGTTTAAATAAGGCTAGTCCGTTATCAACTTGAAAAAGTGTGACCTAGTAGGTCAT
modifications: listed as DNA, chemistry not fully specified
B30: cr871 (nucleic acid)
guide: GTTTAAGAGCTAAGCTGGAAACAGCATAGCAAGTTTAAATAAGCCTAGTGCGTTATCAACTTGAAAAAGTGGCACCGAGTCGGTGCT
modifications: listed as DNA, chemistry not fully specified
B31: cr785 (nucleic acid)
guide: GTTTAAGAGCTAAGCTGGAAACAGCATAGCAAGTTTAAATAAGGCGAGTCCGTTATCAACTTGAAAAAGTGGCACCGAGTCGGTGCG
modifications: listed as DNA, chemistry not fully specified

Tested on: K562 CRISPRi cells
Test: Constant region variant library pooled growth screen, K562
Assay type: cell-based, human
Settings: sgRNA constant region variants; activity relative to the original, un-modified constant region cr995
Outline: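 Cells were selected with puromycin for 2 days and then kept in RPMI-1640 spinner cultures, with duplicates handled separately. Targeting sequences comprised 3 sgRNAs per essential gene for 10 genes plus six non-targeting controls. Activities were normalized against pairing with the unmodified scaffold.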

| Molecule | Mean relative activity |
| --- | --- |
| B1 | 0.8464 |
| B2 | 0.8417 |
| B3 | 0.8216 |
| B4 | 0.8462 |
| B5 | 0.8419 |
| B6 | 0.809 |
| B7 | 0.8231 |
| B8 | 0.8446 |
| B9 | 1.056 |
| B10 | 0.8101 |
| B11 | 0.8315 |
| B12 | 0.8173 |
| B13 | 0.8183 |
| B14 | 0.8408 |
| B15 | 1.102 |
| B16 | 1.056 |

| Molecule | Mean relative activity |
| --- | --- |
| B17 | 0.8216 |
| B18 | 0.8263 |
| B19 | 0.8153 |
| B20 | 0.8081 |
| B21 | 0.8207 |
| B22 | 0.8281 |
| B23 | 0.8278 |
| B24 | 0.8332 |
| B25 | 0.818 |
| B26 | 0.8214 |
| B27 | 0.8361 |
| B28 | 0.8454 |
| B29 | 0.8229 |
| B30 | 0.8313 |
| B31 | 0.8378 |
